Square brackets hold non-standard residues; d marks the D form. * marks the point of attachment. Biotin = O=C1N[C@H]2[C@H](CS[C@H]2CCCCC(=O)*)N1; pT = C[C@@H](OP(=O)(O)O)[C@H](N)C(=O)O
Target: His-Sumo–tagged talin F3 subdomain of the FERM domain (mouse, UniProt P26039 309-411)
Test: pull-down

Sequence of His-Sumo–tagged talin F3 subdomain of the FERM domain (P26039 309-411): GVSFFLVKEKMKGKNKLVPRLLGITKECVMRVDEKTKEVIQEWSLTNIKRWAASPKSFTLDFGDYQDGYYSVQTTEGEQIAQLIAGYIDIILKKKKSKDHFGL

Row | Binder | binding result
1 | Biotin-EFAKFEKEKMNAKWDTGENPIYKSAVTTVVNPKYEGK-OH (SMILES CC[C@H](C)[C@H](NC(=O)[C@@H]1CCCN1C(=O)[C@H](CC(N)=O)NC(=O)[C@H](CCC(=O)O)NC(=O)CNC(=O)[C@@H](NC(=O)[C@H](CC(=O)O)NC(=O)[C@H](Cc1c[nH]c2ccccc12)NC(=O)[C@H](CCCCN)NC(=O)[C@H](C)NC(=O)[C@H](CC(N)=O)NC(=O)[C@H](CCSC)NC(=O)[C@H](CCCCN)NC(=O)[C@H](CCC(=O)O)NC(=O)[C@H](CCCCN)NC(=O)[C@H](CCC(=O)O)NC(=O)[C@H](Cc1ccccc1)NC(=O)[C@H](CCCCN)NC(=O)[C@H](C)NC(=O)[C@H](Cc1ccccc1)NC(=O)[C@H](CCC(=O)O)NC(=O)CCCC[C@@H]1SC[C@@H]2NC(=O)N[C@@H]21)[C@@H](C)O)C(=O)N[C@@H](Cc1ccc(O)cc1)C(=O)N[C@@H](CCCCN)C(=O)N[C@@H](CO)C(=O)N[C@@H](C)C(=O)N[C@H](C(=O)N[C@H](C(=O)N[C@H](C(=O)N[C@H](C(=O)N[C@H](C(=O)N[C@@H](CC(N)=O)C(=O)N1CCC[C@H]1C(=O)N[C@@H](CCCCN)C(=O)N[C@@H](Cc1ccc(O)cc1)C(=O)N[C@@H](CCC(=O)O)C(=O)NCC(=O)N[C@@H](CCCCN)C(=O)O)C(C)C)C(C)C)[C@@H](C)O)[C@@H](C)O)C(C)C) [biotin-integrin peptide β1-762-798] | binds
2 | Biotin-EFAKFEKEKMNAKWDTGENPIYKSAV[pT][pT]VVNPKYEGK-OH (SMILES CC[C@H](C)[C@H](NC(=O)[C@@H]1CCCN1C(=O)[C@H](CC(N)=O)NC(=O)[C@H](CCC(=O)O)NC(=O)CNC(=O)[C@@H](NC(=O)[C@H](CC(=O)O)NC(=O)[C@H](Cc1c[nH]c2ccccc12)NC(=O)[C@H](CCCCN)NC(=O)[C@H](C)NC(=O)[C@H](CC(N)=O)NC(=O)[C@H](CCSC)NC(=O)[C@H](CCCCN)NC(=O)[C@H](CCC(=O)O)NC(=O)[C@H](CCCCN)NC(=O)[C@H](CCC(=O)O)NC(=O)[C@H](Cc1ccccc1)NC(=O)[C@H](CCCCN)NC(=O)[C@H](C)NC(=O)[C@H](Cc1ccccc1)NC(=O)[C@H](CCC(=O)O)NC(=O)CCCC[C@@H]1SC[C@@H]2NC(=O)N[C@@H]21)[C@@H](C)O)C(=O)N[C@@H](Cc1ccc(O)cc1)C(=O)N[C@@H](CCCCN)C(=O)N[C@@H](CO)C(=O)N[C@@H](C)C(=O)N[C@H](C(=O)N[C@H](C(=O)N[C@H](C(=O)N[C@H](C(=O)N[C@H](C(=O)N[C@@H](CC(N)=O)C(=O)N1CCC[C@H]1C(=O)N[C@@H](CCCCN)C(=O)N[C@@H](Cc1ccc(O)cc1)C(=O)N[C@@H](CCC(=O)O)C(=O)NCC(=O)N[C@@H](CCCCN)C(=O)O)C(C)C)C(C)C)[C@@H](C)OP(=O)(O)O)[C@@H](C)OP(=O)(O)O)C(C)C) [biotin-integrin phospho-peptide β1-762-798 pTpT] | binds

— article PMC7604772 (The Journal of Cell Biology, 2020)
